B1: EHMT1 (parent)
chain: EEINKNISDFGRQQLLPPFPSLHQ

Variants of: B1
Test: protein stability index of a GFP-peptide fusion (GPS, HEK-293T) (PSI 1-6); higher = more stable
Details: c terminus: a fixed tail appended
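Further: lentivirally expressed fusions sorted by FACS into six bins by GFP to DsRed ratio, PSI derived from sequencing read proportions per bin multiplied by bin number.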

Protein stability index of substitutions, site by site:
L16: G 3.85; I 2.82; M 2.79; V 3.33; R 3.23; F 2.42; N 3.71; H 3.32; C 3.26; S 3.73; Q 3.83; T 3.5; K 3.05; E 3.72; Y 2.45; A 3.57; W 2.65; P 3.34; D 4
Q13: V 2.45; W 2.23; T 2.56; K 2.59; Y 2.7; S 2.75; C 2.06; P 3.4; D 3.25; A 3.2; L 2.48; I 2.19; E 3.38; R 2.42; F 2.5; G 3; M 2.94; N 2.65; H 2.32
P20: G 3.37; A 2.82; C 2.87; Q 3.31; F 2.61; W 1.82; D 3.5; T 3.01; V 3.02; Y 2.59; H 2.69; R 2.5; K 3.3; M 2.51; L 2.73; I 2.69; N 3.32; S 3.22; E 3.73
G11: N 3; Y 2.15; D 2.97; S 2.73; C 1.94; I 1.71; Q 3.25; M 2.85; T 2.53; K 2.59; F 2.02; V 2.24; P 2.87; A 2.88; W 1.55; H 2.43; L 1.88; E 3.06; R 2.48
F19: H 3.69; Q 4.38; E 4.39; P 4.41; A 4.02; W 2.01; Y 3.29; K 3.99; S 4.19; M 4.19; G 4.05; N 4.37; V 3.76; L 3.54; D 4.42; I 3.61; C 4.24; T 4.04; R 4.1
D9: P 2.45; M 2.02; C 2.09; A 2.38; V 2.31; I 2.21; S 2.42; W 2.15; K 2.18; G 2.65; T 2.61; H 2.41; F 2.1; E 2.5; R 2.22; Y 2.4; N 2.43; Q 2.63; L 2.58
I7: Y 2.73; D 3.21; S 2.83; R 2.42; P 2.38; M 3.03; L 2.97; K 2.79; E 3.38; V 2.98; G 3.3; Q 3.58; A 2.96; T 2.63; W 2.52; F 3.31; N 3.72; H 2.73; C 2.88
Q14: S 2.62; W 2.03; G 2.92; D 2.84; I 2.77; C 2.18; L 2.31; N 2.54; R 2.45; M 2.49; K 2.84; F 2.02; A 2.74; T 2.45; Y 1.78; P 2.39; E 3; V 2.77; H 2.29
L15: N 2.87; F 2.31; K 3.07; I 2.85; Q 3.3; Y 2.97; T 3.15; W 2.5; D 3.81; M 2.71; R 3.28; S 2.82; G 3.37; E 3.65; A 2.81; V 3.62; P 2.92; H 2.96; C 2.54
S8: K 3.02; F 2.64; T 2.77; I 2.82; L 2.12; M 2.72; A 3.22; D 3.07; Y 2.53; Q 2.64; V 3.21; R 2.71; N 2.46; H 2.77; W 2.02; E 2.86; G 2.55; P 3.12; C 2.62
S21: K 3.68; R 3.21; E 3.59; P 3.54; V 2.82; I 2.62; C 3.06; F 2.59; L 2.9; H 3.58; W 1.98; Y 2.54; Q 3.33; T 3; M 2.01; A 2.36; N 2.73; G 2.7; D 3.9
F10: N 3.24; P 3.31; I 2.52; M 3.04; A 3.04; R 2.88; K 3.45; Y 3.11; G 3.39; V 3.04; E 3.37; Q 3.3; L 2.91; C 2.6; H 2.99; W 2.59; S 3.4; D 3.91; T 2.86
P17: H 2.52; I 1.82; Y 2.54; W 2.02; S 3.22; A 2.79; L 2.21; F 2.02; D 2.74; E 3.87; M 2.27; C 2.84; R 2.94; T 2.41; N 2.54; K 3.09; V 2.18; Q 3.27; G 2.83
L22: F 2.79; P 3.91; G 3.81; I 3.18; D 4.7; A 3.73; M 3.1; N 4.04; H 3.42; K 4.33; C 3.82; E 4.75
R12: Q 2.97; M 2.47; D 3.64; Y 2.86; P 3.38; V 3.25; E 3.46; C 2.79; A 3.2; L 2.74; F 2.23; N 3.5; W 2.24; K 3.06; G 3.15; H 2.77; T 3.52; I 2.93; S 3.12
K5: R 2.57; C 2.54; L 2.72; F 2.28; G 2.71; H 2.86; V 2.68; P 3.06; E 3.15; N 3.28; S 2.84; M 3.23; I 2.51; Q 3.11; D 3.37; Y 2.13; T 3.16; W 2.6
P18: E 3.66; K 3.36; M 2.95; V 3.34; Y 2.94; Q 3.63; T 2.92; L 3.07; S 3.12; R 3.57; F 2.91; I 2.87; A 3.28; H 3.15; C 3.16; G 3.31; D 3.46; W 3.06; N 3.05
N6: G 2.91; T 2.65; R 2.1; C 2.44; V 2.71; I 2.17; F 1.91; W 1.76; A 2.85; M 2.92; Q 2.71; K 2.38; S 3.15; D 3.15; P 2.92; L 1.97; H 2.4; Y 2.09; E 2.91

Reference: the supplement of paper PMC10567573
